The values that follow come from patent US20200332306.

Series [1] has as its target Sth7710 Type I-E Cascade plus Cas3 nickase (Streptococcus thermophilus DGCC7710) (UniProt F2XG53). Put plainly: cell_activity.
In series [2] the test system is Sth7710 Type I-E Cascade, Cas5, Cas6 and Cse1 each AtCBF1-linked (Streptococcus thermophilus DGCC7710). The series is described as follows: cell_activity. The note with it: PAM AA 5'; value for R1 guides pooled (A2+, A4+, A1-); SE 18.9; no-guide control 0.

As to “GUGAUCCNNNNNNNNNNNNNNNNNNNNNNNNNNNNNNNNNGUUUUUCCCGCACACGCGGGGGAGGGUCUACUUCCAUCACCGUCUUGCUCGGUC / GAGGGTCTACTTCCATCACCGTCTTGCTCGGTC / GACCGAGCAAGACGGTGATGGAAGTAGACCCTC [R1 A2+ guide RNA ; R1 A2+ protospacer]”, the activity (% mutant reads) in series [1] (paired nicking A2+/A3-, A2+/A1- pair gave 0.02%, PAM AA 5') worked out at 0.06. This sequence returned an activity (anthocyanin positive cells) in series [2] of 153. For the sequence “GUGAUCCNNNNNNNNNNNNNNNNNNNNNNNNNNNNNNNNNGUUUUUCCCGCACACGCGGGGCAGCAGUAGUGUUACAGAAGCUAAACUCAACCA / CAGCAGTAGTGTTACAGAAGCTAAACTCAACCA / TGGTTGAGTTTAGCTTCTGTAACACTACTGCTG [R1 A4+ guide RNA ; R1 A4+ protospacer]”, the activity (% mutant reads) in series [1] (paired nicking A4+/A1-, PAM AA 5') worked out at 0.06. The sequence further gave an activity (anthocyanin positive cells) in series [2] of 153. Take “GUGAUCCNNNNNNNNNNNNNNNNNNNNNNNNNNNNNNNNNGUUUUUCCCGCACACGCGGGGUUUAUGGACAGAGCUCCAAGUGACCGAGCAAGA / TTTATGGACAGAGCTCCAAGTGACCGAGCAAGA / TCTTGCTCGGTCACTTGGAGCTCTGTCCATAAA [R1 A1- guide RNA ; R1 A1- protospacer]”: in series [2], the activity (anthocyanin positive cells) came out at 153. For “GUGAUCCNNNNNNNNNNNNNNNNNNNNNNNNNNNNNNNNNGUUUUUCCCGCACACGCGGGGCACUACUGCUGUUCAUGUACAGUUUAAGCACUA / CACTACTGCTGTTCATGTACAGTTTAAGCACTA / TAGTGCTTAAACTGTACATGAACAGCAGTAGTG [R1 A3- guide RNA ; R1 A3- protospacer]”, the activity (% mutant reads) in series [1] (paired nicking A4+/A3-, PAM not printed for A3-) amounted to 0.03.
